Here are results for six molecules from paper PMC8894342, “Humanization of a strategic CD3 epitope enables evaluation of clinical T-cell engagers in a fully immunocompetent in vivo model” (Scientific Reports, 2022).

Assay in all cases: SPR; Fc-tagged CD3E/D variants captured on a C1 chip by amine-coupled anti-human Fc or anti-murine Fc pAb; concentration series of Fab; HBS pH 7.4, 0.05% Tween-20, 1 g/L BSA, 37 °C; 1:1 Langmuir model with mass transport
Conditions in all cases: both partners purified
On the technique in general: SPR reads the build-up and loss of mass on a sensor chip optically.

In assay [1] the target is T1, Fc-tagged human CD3E/D heterodimer (Homo sapiens, UniProt P07766;P04234).
T1 construct: CD3 epsilon, human; CD3 delta, human; also called hCD3E/D; source: Expi293, transiently co-expressed, purified (MabSelect Sure LX, Superdex 200)

Assay [2] deals with T2, chimeric human/murine CD3E - murine CD3D Fc-tagged heterodimer (Mus musculus CD3E/D with human CD3E …, UniProt P07766;P22646;P04235, chimera).
T2 construct: CD3 epsilon, mouse, with a 5-residue N-terminal stretch replaced by an 11-residue stretch of human CD3E; CD3 delta, mouse; also called Chimeric human/murine CD3E/D; h/mCD3E-mCD3D; source: Expi293, transiently co-expressed, purified (MabSelect Sure LX, Superdex 200)

The target in assay [3] is T3, Fc-tagged cyno CD3E/D heterodimer (Macaca fascicularis, UniProt Q95LI5;Q95LI8).
T3 construct: CD3 epsilon, cynomolgus monkey; CD3 delta, cynomolgus monkey; source: Expi293, transiently co-expressed, purified (MabSelect Sure LX, Superdex 200)

The target of assay [4] is T4, Fc-tagged murine CD3E/D heterodimer (Mus musculus, UniProt P22646;P04235).
T4 construct: CD3 epsilon, mouse; CD3 delta, mouse; also called mCD3E/D; source: Expi293, transiently co-expressed, purified (MabSelect Sure LX, Superdex 200)
T4 sequence (P22646 22-189, chain 1 of 2): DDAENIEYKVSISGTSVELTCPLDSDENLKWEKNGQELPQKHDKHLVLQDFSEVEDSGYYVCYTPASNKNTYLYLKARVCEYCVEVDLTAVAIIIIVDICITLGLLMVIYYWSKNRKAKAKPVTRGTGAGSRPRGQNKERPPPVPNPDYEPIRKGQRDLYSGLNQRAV
T4 sequence (P04235 22-173, chain 2 of 2): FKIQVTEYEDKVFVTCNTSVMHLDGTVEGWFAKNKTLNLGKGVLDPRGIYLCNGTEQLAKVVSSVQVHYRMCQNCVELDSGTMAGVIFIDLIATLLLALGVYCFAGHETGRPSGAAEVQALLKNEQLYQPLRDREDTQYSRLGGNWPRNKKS

T3 sequence (Q95LI5 22-198, chain 1 of 2): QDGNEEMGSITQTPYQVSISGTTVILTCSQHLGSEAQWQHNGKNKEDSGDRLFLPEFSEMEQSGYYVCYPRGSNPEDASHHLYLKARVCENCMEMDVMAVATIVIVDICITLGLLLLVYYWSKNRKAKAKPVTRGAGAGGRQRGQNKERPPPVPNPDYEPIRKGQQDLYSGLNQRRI
T3 sequence (Q95LI8 22-171, chain 2 of 2): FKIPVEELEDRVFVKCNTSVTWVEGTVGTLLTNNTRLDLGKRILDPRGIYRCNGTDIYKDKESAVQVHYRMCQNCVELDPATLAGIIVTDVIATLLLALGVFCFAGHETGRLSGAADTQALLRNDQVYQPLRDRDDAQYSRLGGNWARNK
T1 sequence (P07766 23-207, chain 1 of 2): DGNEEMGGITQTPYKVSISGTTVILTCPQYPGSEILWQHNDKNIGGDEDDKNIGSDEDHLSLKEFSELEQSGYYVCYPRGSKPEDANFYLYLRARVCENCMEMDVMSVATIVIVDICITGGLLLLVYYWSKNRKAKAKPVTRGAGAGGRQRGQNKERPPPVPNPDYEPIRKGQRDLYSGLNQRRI
T1 sequence (P04234 22-171, chain 2 of 2): as the sequence (Q95LI8 22-171, chain 2 of 2) above, with V5I, K15N, V20I, T32S, N33D, N34I, A64T, N74S, L83V, R141H counted along it
T2 sequence (P22646 22-189, stated change not applied, chain 1 of 2): as the sequence (P22646 22-189, chain 1 of 2) above
T2 sequence (P04235 22-173, stated change not applied, chain 2 of 2): as the sequence (P04235 22-173, chain 2 of 2) above

B1: SP34 Fab (Fab, V domains shown)
VH: EVQLVESGGGLVQPKGSLKLSCAASGFTFNTYAMNWVRQAPGKGLEWVARIRSKYNNYATYYADSVKDRFTISRDDSQSILYLQMNNLKTEDTAMYYCVRHGNFGNSYVSWFAYWGQGTLVTVSA
VL: QAVVTQESALTTSPGETVTLTCRSSTGAVTTSNYANWVQEKPDHLFTGLIGGTNKRAPGVPARFSGSLIGDKAALTITGAQTEDEAIYCALWYSNLWVFGGGTKLTVL
notes: VH of SP34; CH1 of the Fab; VL of SP34; CL of the Fab; Cyno cross-reactive anti-human CD3 clone; cloned in pTT5 with an N-terminal osteonectin signal peptide; source: Expi293, transient, purified (Ni Sepharose excel, Superdex 200)
In the case of B1, the Kd (in general, the free concentration of one partner at which half of the binding sites on the other are occupied at equilibrium, for simple one-to-one binding) in assay [1] amounted to 6.6 ± 0.46 nM; in assay [2], 7.3 ± 0.18 nM; in assay [3], 7.5 ± 0.06 nM. In addition, the binding result in assay [4] was “no binding”.

B2: 2C11 Fab (Fab, V domains shown)
VH: EVQLVESGGGLVQPGKSLKLSCEASGFTFSGYGMHWVRQAPGRGLESVAYITSSSINIKYADAVKGRFTVSRDNAKNLLFLQMNILKSEDTAMYYCARFDWDKNYWGQGTMVTVSS
VL: DIQMTQSPSSLPASLGDRVTINCQASQDISNYLNWYQQKPGKAPKLLIYYTNKLADGVPSRFSGSGSGRDSSFTISSLESEDIGSYYCQQYYNYPWTFGPGTKLEIK
notes: VH of 2C11; CH1 of the Fab; VL of 2C11; CL of the Fab; Murine surrogate anti-CD3 clone; cloned in pTT5 with an N-terminal osteonectin signal peptide; also called m2C11; source: Expi293, transient, purified (Ni Sepharose excel, Superdex 200)
For the molecule B2, the binding result in assay [1] and in assay [3] was “no binding” each time. For the same molecule, the Kd in assay [2] turned out to be 250 ± 16 nM; in assay [4], 22 ± 1.4 nM.

B3: hCD3.5 Fab (Fab, V domains shown)
VH: not shown
VL: QAVVTQEPSLTVSPGGTVTLTCGSSTGAVTTSNYANWVQEKPGQAFRGLIGGTNKRAPGTPARFSGSLLGGKAALTLSGAQPEDEAEYYCALWYSNLWVFGGGTKLTVL
notes: VH of hCD3.5; CH1 of the Fab; VL of hCD3.5; CL of the Fab; Anti-human CD3 arm of a clinical T-cell engager; cloned in pTT5 with an N-terminal osteonectin signal peptide; source: Expi293, transient, purified (Ni Sepharose excel, Superdex 200)
Turning to B3, the Kd in assay [1] came to 4.1 ± 0.44 nM; in assay [2] it was 4.4 ± 0.27 nM; in assay [3] it was 5 ± 0.5 nM. For the same molecule, the binding result in assay [4] is “no binding”.

B4: hCD3.2 Fab (Fab, V domains shown)
VH: EVQLVESGGGLVQPGGSLRLSCAASGFTFNTYAMNWVRQAPGKGLEWVARIRSKYNNYATYYAASVKGRFTISRDDSKNSLYLQMNSLKTEDTAVYYCARHGNFGNSYVSWFAYWGQGTLVTVSS
VL: QTVVTQEPSLTVSPGGTVTLTCRSSTGAVTTSNYANWVQQKPGQAPRGLIGGTNKRAPGTPARFSGSLLGGKAALTLSGVQPEDEAEYYCALWYSNLWVFGGGTKLTVL
notes: VH of hCD3.2; CH1 of the Fab; VL of hCD3.2; CL of the Fab; Anti-human CD3 arm of a clinical T-cell engager; cloned in pTT5 with an N-terminal osteonectin signal peptide; source: Expi293, transient, purified (Ni Sepharose excel, Superdex 200)
On to B4, for which the results for the Kd in assay [1], in assay [2] and in assay [3] were 3.1 ± 0.35 nM, 4.2 ± 0.22 nM and 3.8 ± 0.61 nM, respectively. The binding result in assay [4] is recorded as “no binding”.

B5: hCD3.1 Fab (Fab, V domains shown)
VH: EVQLVESGGGLVQPGGSLRLSCAASGFTFSDYYMTWVRQAPGKGLEWVAFIRNRARGYTSDHNPSVKGRFTISRDNAKNSLYLQMNSLRAEDTAVYYCARDRPSYYVLDYWGQGTTVTVSS
VL: DIVMTQSPDSLAVSLGERATINCKSSQSLFNVRSRKNYLAWYQQKPGQPPKLLISWASTRESGVPDRFSGSGSGTDFTLTISSLQAEDVAVYYCKQSYDLFTFGSGTKLEIK
notes: VH of hCD3.1; CH1 of the Fab; VL of hCD3.1; CL of the Fab; Anti-human CD3 arm of a clinical T-cell engager; cloned in pTT5 with an N-terminal osteonectin signal peptide; source: Expi293, transient, purified (Ni Sepharose excel, Superdex 200)
On to B5, for which the Kd in assay [1] was 6.3 ± 0.18 nM; in assay [2], 8.6 ± 0.53 nM; in assay [3], 6.5 ± 0.11 nM. Besides, in assay [4], the binding result was “no binding”.

B6: hCD3.4 Fab (Fab, V domains shown)
VH: QVQLVQSGAEVKKPGASVKVSCKASGFNIKDYYMHWVRQAPGQRLEWMGWIDLENGNTIYDPKFQGRVTITRDTSASTAYMELSSLRSEDTAVYYCARDGYGRYFYDVWGQGTLVTVSS
VL: DIVMTQSPDSLAVSLGERATINCKSSQSLLNSRTGKNYLAWYQQKPGQPPKLLIYWASTRESGVPDRFSGSGSGTDFTLTISSLQAEDVAVYYCKQSYSRRTFGGGTKVEIK
notes: VH of hCD3.4; CH1 of the Fab; VL of hCD3.4; CL of the Fab; Anti-human CD3 arm of a clinical T-cell engager; cloned in pTT5 with an N-terminal osteonectin signal peptide; source: Expi293, transient, purified (Ni Sepharose excel, Superdex 200)
As for B6, the Kd in assay [1] was 2.7 ± 0.45 nM; in assay [2], 3.1 ± 0.23 nM; in assay [3] it was 2.7 ± 0.02 nM. The binding result in assay [4] is reported as “no binding”.
